Measured values taken from patent US20250161440A1 (ABCENTRA, published 2025).

Molecular target: oxidized LDL (oxLDL) (UniProt P04114 28-4563, limits assumed, oxidized); the kind of oxidation used in the in vitro assay is not stated (the filing says in general that oxidized LDL may carry malondialdehyde groups on lysines and histidines, or be oxidized by …)
Test: cell-based or functional assay

oxidized LDL (oxLDL), sequence (P04114 28-4563 limits assumed): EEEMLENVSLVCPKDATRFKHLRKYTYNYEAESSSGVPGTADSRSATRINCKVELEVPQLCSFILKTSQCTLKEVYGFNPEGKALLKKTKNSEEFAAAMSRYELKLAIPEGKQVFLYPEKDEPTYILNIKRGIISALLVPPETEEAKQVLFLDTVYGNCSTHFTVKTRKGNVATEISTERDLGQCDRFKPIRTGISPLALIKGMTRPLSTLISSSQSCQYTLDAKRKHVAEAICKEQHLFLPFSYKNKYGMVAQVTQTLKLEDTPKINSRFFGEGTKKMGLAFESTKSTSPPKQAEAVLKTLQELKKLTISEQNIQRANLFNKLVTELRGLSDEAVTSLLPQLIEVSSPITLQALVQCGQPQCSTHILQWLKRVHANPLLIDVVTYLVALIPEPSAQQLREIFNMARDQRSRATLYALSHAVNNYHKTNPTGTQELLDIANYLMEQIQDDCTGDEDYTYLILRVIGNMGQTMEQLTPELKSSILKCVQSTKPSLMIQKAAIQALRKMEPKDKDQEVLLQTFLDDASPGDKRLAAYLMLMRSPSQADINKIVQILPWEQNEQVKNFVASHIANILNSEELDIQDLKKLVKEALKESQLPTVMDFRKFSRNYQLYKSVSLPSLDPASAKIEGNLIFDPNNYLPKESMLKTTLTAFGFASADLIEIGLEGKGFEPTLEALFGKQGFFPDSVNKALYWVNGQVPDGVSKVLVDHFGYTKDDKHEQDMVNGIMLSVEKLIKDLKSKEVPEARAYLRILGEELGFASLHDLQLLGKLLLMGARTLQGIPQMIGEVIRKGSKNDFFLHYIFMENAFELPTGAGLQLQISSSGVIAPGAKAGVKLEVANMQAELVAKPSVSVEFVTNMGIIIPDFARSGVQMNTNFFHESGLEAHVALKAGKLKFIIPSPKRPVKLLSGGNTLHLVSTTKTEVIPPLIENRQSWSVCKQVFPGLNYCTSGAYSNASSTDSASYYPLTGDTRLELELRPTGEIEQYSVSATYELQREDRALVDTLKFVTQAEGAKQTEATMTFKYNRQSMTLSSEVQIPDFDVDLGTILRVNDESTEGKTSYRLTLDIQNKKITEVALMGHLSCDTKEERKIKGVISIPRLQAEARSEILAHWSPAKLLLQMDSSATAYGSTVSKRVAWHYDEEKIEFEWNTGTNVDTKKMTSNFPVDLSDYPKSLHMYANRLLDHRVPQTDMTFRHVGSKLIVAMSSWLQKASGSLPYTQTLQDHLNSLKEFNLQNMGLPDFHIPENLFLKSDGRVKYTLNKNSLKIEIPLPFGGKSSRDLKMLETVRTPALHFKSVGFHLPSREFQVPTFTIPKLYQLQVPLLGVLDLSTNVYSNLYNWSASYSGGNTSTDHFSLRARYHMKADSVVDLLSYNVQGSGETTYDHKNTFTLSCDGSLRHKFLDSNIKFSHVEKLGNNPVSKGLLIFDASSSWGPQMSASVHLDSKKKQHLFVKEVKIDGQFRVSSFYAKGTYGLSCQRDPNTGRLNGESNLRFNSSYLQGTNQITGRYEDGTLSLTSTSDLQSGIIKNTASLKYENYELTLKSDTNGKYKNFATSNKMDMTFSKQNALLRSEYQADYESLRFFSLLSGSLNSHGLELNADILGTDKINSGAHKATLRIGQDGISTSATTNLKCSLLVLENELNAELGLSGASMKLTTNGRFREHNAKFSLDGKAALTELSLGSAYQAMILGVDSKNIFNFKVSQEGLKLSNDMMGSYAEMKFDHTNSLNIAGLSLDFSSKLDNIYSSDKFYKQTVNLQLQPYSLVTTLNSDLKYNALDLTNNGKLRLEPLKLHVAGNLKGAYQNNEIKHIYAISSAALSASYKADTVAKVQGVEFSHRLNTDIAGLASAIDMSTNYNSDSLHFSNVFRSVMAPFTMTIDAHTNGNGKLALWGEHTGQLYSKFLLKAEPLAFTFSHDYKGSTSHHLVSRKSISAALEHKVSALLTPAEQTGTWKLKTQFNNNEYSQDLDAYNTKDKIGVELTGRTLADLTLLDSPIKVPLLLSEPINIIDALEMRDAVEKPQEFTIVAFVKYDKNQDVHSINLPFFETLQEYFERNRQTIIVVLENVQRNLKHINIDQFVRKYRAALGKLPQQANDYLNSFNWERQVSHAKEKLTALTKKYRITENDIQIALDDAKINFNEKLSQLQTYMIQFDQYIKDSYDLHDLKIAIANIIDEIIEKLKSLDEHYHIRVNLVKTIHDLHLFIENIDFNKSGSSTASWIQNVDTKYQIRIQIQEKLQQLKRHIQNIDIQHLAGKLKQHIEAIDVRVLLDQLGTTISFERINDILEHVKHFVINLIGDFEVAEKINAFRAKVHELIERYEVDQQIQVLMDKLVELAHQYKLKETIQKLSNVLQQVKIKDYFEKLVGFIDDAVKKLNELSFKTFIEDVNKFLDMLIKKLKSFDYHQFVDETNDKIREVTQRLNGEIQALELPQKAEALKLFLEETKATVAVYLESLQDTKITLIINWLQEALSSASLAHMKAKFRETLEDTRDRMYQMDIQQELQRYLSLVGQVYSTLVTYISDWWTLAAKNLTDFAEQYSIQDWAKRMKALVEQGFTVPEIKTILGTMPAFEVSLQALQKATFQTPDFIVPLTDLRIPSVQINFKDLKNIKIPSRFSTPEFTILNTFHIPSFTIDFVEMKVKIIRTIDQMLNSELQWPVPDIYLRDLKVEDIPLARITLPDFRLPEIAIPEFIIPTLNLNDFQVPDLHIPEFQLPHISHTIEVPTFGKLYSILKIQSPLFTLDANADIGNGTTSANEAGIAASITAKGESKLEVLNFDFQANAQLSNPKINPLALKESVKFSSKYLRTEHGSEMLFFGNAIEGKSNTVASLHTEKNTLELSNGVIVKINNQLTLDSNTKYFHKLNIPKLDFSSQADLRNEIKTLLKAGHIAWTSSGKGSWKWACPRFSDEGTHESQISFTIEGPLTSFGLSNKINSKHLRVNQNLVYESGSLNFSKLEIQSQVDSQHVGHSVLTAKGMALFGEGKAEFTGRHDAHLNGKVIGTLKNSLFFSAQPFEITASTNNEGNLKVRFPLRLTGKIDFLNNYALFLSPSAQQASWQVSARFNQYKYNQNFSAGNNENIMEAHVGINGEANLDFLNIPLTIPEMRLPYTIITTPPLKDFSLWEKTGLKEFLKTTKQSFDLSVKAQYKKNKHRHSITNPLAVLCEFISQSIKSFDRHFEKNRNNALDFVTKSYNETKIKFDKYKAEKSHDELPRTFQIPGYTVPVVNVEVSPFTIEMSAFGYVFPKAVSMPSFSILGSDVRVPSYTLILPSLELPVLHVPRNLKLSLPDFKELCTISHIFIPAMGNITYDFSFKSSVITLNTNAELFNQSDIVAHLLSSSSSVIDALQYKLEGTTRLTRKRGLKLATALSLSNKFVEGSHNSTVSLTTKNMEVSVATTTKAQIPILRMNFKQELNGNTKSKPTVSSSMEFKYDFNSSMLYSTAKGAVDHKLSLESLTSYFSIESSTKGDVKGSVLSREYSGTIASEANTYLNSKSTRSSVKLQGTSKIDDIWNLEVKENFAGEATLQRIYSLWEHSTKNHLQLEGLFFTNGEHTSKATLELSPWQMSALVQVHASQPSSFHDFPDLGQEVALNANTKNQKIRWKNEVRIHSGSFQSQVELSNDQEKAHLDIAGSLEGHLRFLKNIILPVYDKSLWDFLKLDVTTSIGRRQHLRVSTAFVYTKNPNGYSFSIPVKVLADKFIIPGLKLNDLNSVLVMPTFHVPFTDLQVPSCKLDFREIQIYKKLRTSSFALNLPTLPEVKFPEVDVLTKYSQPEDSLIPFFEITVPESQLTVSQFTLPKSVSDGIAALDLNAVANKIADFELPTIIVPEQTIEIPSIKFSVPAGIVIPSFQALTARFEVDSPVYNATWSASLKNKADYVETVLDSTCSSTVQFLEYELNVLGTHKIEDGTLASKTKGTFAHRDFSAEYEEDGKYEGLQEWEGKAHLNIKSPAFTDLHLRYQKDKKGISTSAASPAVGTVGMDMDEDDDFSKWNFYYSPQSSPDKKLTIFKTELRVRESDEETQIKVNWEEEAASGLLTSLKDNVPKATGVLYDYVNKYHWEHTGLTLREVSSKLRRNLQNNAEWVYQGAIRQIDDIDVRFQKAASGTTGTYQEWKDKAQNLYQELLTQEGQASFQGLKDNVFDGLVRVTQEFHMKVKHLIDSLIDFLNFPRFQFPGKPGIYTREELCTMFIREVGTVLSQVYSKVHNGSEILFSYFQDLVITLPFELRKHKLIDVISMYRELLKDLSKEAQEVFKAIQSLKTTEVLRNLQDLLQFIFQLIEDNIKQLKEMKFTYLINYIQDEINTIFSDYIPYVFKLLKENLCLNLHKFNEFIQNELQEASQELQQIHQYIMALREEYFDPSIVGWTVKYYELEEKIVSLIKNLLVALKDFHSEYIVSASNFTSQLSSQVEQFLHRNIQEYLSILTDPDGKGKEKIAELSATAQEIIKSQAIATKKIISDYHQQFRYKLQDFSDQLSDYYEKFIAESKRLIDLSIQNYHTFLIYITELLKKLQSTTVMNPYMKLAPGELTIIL

IC50 for MCP-1 inhibition: ~0.01 µM
B1: orticumab (antibody, human IgG1, lambda, V domains shown)
VH: EVQLLESGGGLVQPGGSLRLSCAASGFTFSNAWMSWVRQAPGKGLEWVSSISVGGHRTYYADSVKGRSTISRDNSKNTLYLQMNSLRAEDTAVYYCARIRVGPSGGAFDYWGQGTLVTVSS
VL: QSVLTQPPSASGTPGQRVTISCSGSNTNIGKNYVSWYQQLPGTAPKLLIYANSNRPSGVPDRFSGSKSGTSASLAISGLRSEDEADYYCASWDASLNGWVFGGGTKLTVLG
